The values below come from US20180362657A1 (University of California, published 2018).

For the test, the target named is T1, receptor tyrosine kinase-like orphan receptor 1 (ROR1) expressed on EW36 cells (human, UniProt Q01973 30-937).
T1 construct: whole, on cells; Endogenous ROR1 on viable EW36 human B-cell lymphoma cells; also called RORI
The test is described as follows: flow cytometry on EW36 cells, culture supernatant, Alexa-488 goat anti-human IgG. How it is done:
Dual parameter flow cytometry was done in a FACSCalibur instrument (BD Biosciences; Immunocytometry Systems) using an anti-human 1gG that reacted with cell bound scFV of the invention (as shown in SEQ.ID.No: 3), but not the cells used in these experiments.
Propidium iodide was added to stain dead cells, which could then be excluded from the analysis. Following incubation with the culture supernatants, the cells were washed prior to analysis using a FACSCalibu™ (Becton Dickinson, Mountain View, Calif.). The data analyzed with FlowJo™ software (Tree Star, San Carlos, Calif.). A total of 20,000-gated events were collected for each sample in a list mode file, and data analysis was done using CellQuest™ software (BD Biosciences). The relative log florescence of the cells is depicted on the x-axis. Cells staining with the Alexa-488 conjugated goat antibody are shifted to the right. A histogram of control unstained cells or cells stained with the Alexa-488 conjugated goat antibody in the absence of the scFV are provided for comparison.
(In general: In flow cytometry, cells or beads pass a laser one at a time.)

T1 sequence (Q01973 30-937): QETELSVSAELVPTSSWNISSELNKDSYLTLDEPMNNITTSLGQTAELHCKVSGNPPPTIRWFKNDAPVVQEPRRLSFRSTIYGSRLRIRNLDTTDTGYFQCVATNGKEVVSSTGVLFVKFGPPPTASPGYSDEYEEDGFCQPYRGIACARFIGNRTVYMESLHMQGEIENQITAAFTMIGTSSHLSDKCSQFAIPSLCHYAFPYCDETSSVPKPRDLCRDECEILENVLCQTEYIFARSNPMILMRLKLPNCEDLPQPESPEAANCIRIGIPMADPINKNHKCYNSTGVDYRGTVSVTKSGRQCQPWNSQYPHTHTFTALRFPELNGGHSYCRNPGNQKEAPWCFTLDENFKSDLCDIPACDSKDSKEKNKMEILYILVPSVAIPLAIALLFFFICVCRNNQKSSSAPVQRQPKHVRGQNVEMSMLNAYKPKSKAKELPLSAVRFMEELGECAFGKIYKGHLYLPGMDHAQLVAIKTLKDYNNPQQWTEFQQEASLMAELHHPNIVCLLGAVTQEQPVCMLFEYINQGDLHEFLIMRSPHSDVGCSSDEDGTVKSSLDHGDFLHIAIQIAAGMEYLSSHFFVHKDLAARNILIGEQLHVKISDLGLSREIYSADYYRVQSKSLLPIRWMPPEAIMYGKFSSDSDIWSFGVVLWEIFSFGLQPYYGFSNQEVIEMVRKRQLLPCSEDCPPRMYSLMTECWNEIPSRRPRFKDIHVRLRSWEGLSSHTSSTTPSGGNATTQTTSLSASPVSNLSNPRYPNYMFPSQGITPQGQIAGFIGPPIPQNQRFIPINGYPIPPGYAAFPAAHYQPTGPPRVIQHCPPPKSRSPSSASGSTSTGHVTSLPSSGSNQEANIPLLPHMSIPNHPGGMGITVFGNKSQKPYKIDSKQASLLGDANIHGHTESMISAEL

B1: pCDNA 3.1 CH2 CH3 stable scFV (anti-ROR1 mAb scFv fused to CH2 CH3) (Fc fusion)
scFv: DIKMTQSPSSMYASLGERVTITCKASPDINSYLSWFQQKPGKSPKTLIYRANRLVDGVPSRFSGGGSGQDYSLTINSLEYEDMGIYYCLQYDEFPYTFGGGTKLEMKGSTSGSGKPGSGEGSTKGEVKLVESGGGLVKPGGSLKLSCAASGFTFSSYAMSWVRQIPEKRLEWVASISRGGTTYYPDSVKGRFTISRDNVRNILYLQMSSLRSEDTAMYYCGRYDYDGYYAMDYWGQGTSVTVSS
notes: Tested as culture supernatants of stably transfected cell clones; All clones carry the same construct, so they are written as one molecule; also called scFV of the invention; not shown: CH2 CH3 domains (detected with anti-human IgG)
Take B1: the binding result is given as “binds”.
